According to patent US20200407445A1 (ITEOS THERAPEUTICS, published 2020):
Where two headings read alike, the source gives them in different places.

T1: human TIGIT expressed on cells (human, UniProt Q495A1 22-244)
T1 construct: whole, on cells; on Jurkat E6.1 cells transduced with human TIGIT, on Promega TIGIT Effector cells or on human primary T cells; the assay field says which; also called hTIGIT; Jurkat-hTIGIT
T1 sequence (looked up): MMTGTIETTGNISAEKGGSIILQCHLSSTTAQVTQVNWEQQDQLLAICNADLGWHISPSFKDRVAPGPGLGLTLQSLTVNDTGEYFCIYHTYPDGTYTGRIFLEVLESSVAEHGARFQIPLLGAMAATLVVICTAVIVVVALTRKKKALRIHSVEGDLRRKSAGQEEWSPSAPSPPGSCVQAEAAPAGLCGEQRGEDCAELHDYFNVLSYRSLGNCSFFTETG

T2: Human TIGIT-Fc (human, UniProt Q495A1 22-141)
T2 construct: bought (Creative Biomart); also called TIGIT-Fc antigen; TIGIT-Fc fusion antigen; not shown: Fc part
T2 sequence (looked up): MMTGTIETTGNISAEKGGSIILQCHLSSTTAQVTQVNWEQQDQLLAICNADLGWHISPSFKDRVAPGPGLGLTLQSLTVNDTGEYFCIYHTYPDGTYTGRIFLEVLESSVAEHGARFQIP

T3: Human TIGIT-His (human, UniProt Q495A1 22-141, biotinylated in the ForteBio Fab assay)
T3 construct: bought (Creative Biomart); also called Biotinylated Human TIGIT HIS; TIGIT-His monomer; not shown: His tag
T3 sequence (looked up): T2 sequence (looked up)

T4: mouse TIGIT expressed on cells (mouse, UniProt P86176 29-249)
T4 construct: whole, on cells; on Jurkat cells engineered to express mouse TIGIT; also called mTIGIT; Jurkat-mTIGIT
T4 sequence (looked up): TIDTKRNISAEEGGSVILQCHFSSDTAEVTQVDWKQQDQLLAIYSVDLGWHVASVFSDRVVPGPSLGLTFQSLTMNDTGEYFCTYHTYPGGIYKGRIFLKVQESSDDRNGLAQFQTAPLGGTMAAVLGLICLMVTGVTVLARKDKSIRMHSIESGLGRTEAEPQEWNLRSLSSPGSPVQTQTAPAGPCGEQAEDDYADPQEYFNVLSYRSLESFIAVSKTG

T5: recombinant human TIGIT protein (construct not stated) (human, UniProt Q495A1 22-141, limits assumed)
T5 construct: also called hTIGIT (Creative Biomart); recombinant TIGIT protein
T5 sequence (looked up): T2 sequence (looked up)

B1: anti-TIGIT antibody clone 29523 (IgG) (antibody, V domains shown)
VH: EVQLVESGGGVVQPGRSLRLSCAASGFTFGSYYMHWVRQAPGKGLEWVAVIWPDGSNKLYADSVKGRFTISRDNSKNTLYLQMNSLRAEDTALYYCAKPVPKSRALDVWGQGTMVTVSS
VL: DIQLTQSPSSVSASVGDRVTITCRASQGISSWLAWYQQKPGKAPKLLIYGASSLQSGVPSRFSGSGSGTDFTLTISSLQPEDFATYYCQQAFYLPWTFGGGTKVEIK
B2: anti-TIGIT antibody clone 29513 (IgG) (antibody, V domains shown)
VH: QVQLVQSGAEVKKPGSSVKVSCKASGGTFQNYAISWVRQAPGQGLEWMGVIVPIFGTANYAQKFQGRVTVTADESTSTAYMELSSLRSEDTAVYYCARLHLGQKAYYGMDVWGQGTTVTVSS
VL: DIQMTQSPSSLSASVGDRVTITCRASQSISSYLNWYQQKPGKAPKLLIYAASSLQSGVPSRFSGSGSGTDFTLTISSLQPEDFATYYCQQRYVFPPTFGGGTKVEIK
B3: anti-TIGIT antibody clone 29499 (IgG) (antibody, V domains shown)
VH: QLQLQESGPGLVKPSETLSLTCTVSGGSISSSRYYWAWIRQPPGKGLEWIGSIGTSGSTYYNPSLKSRVTISVDTSKNQFSLKLSSVTATDTAVYYCAIEGANFRDFGYVAFDIWGQGTMVTVSS
VL: EIVMTQSPATLSVSPGERATLSCRASQSVSSNLAWYQQKPGQAPRLLIYGASTRATGIPARFSGSGSGTEFTLTISSLQSEDFAVYYCQQSPPWPRTFGGGTKVEIK
B4: 31C6 (MEB125.31C6.A1.205 VH4/VL1; comparative anti-TIGIT antibody, human IgG1) (antibody, V domains shown)
VH: EVQLVQSGAEVKKPGASVKVSCKASGYTFSSYVMHWVRQAPGQGLEWIGYIDPYNDGAKYAQKFQGRVTLTSDKSTSTVYMELSSLRSEDTAVYYCARGGPYGWYFDVWGQGTTVTVSS
VL: DIQMTQSPSSLSASVGDRVTITCRASEHIYSYLSWYQQKPGKAPKLLIYNAKTLAEGVPSRFSGSGSGTDFTLTISSLQPEDFATYYCQHHFGSPLTFGQGTRLEIK
notes: from WO2016/028656; made in HEK cells as human IgG1; also called 3106 (as the text prints it)

Experiments:
[1] = biological target: T1, human TIGIT expressed on cells; assay: flow cytometry, 100 nM Ab, Jurkat-hTIGIT vs untransfected
Procedure: (§1) Antibodies were incubated with the cells for 20 min at 4° C. in FACS buffer. […] Geometric mean fluorecence intensity was analysed using LSR BD Fortessa. Cell binding was recorded as the median florescence intensity of PE on the transfected line compared to the un-transfected line for each antibody (Table 3).

[2] = biological target: T2, Human TIGIT-Fc; assay: ForteBio BLI, IgG KD, avid
Procedure: Briefly, ForteBio affinity measurements were performed by loading IgGs on-line onto AHQ sensors. Sensors were equilibrated off-line in assay buffer for 30 min and then monitored on-line for 60 seconds for baseline establishment. Sensors with loaded IgGs were exposed to 100 nM antigen (human TIGIT-Fc, human TIGIT-His or cyno TIGIT-Fc) for 5 minutes, afterwards they were transferred to assay buffer for 5 min for off-rate measurement. Kinetics were analyzed using the 1:1 binding model.

[3] = biological target: T3, Human TIGIT-His; assay: MSD-SET, monovalent (Fab or mAb titrated, not said which)
Procedure: (§2) Briefly, solution equilibrium titrations (SET) were performed in PBS+0.1% IgG-Free BSA (PBSF) with antigen (TIGIT-His monomer) held constant at 10-100 pM and incubated with 3- to 5-fold serial dilutions of Fab or mAbs starting at 10 pM-10 nM. Antibodies (20 nM in PBS) were coated onto standard bind MSD-ECL plates overnight at 4° C. or at room temperature for 30 min. Plates were then blocked by BSA for 30 min with shaking at 700 rpm, followed by three washes with wash buffer (PBSF+0.05% Tween 20). SET samples were applied and incubated on the plates for 150s with shaking at 700 rpm followed by one wash. Antigen captured on a plate was detected with 250 ng/mL sulfotag-labeled streptavidin in PBSF by incubation on the plate for 3 min. The plates were washed three times with wash buffer and then read on the MSD Sector Imager 2400 instrument using 1× Read Buffer T with surfactant. The percent free antigen was plotted as a function of titrated antibody in Prism and fit to a quadratic equation to extract the KD. To improve throughput, liquid handling robots were used throughout MSD-SET experiments, including SET sample preparation.

[4] = biological target: T1, human TIGIT expressed on cells; assay: cell-based or functional assay
[5] = biological target: T4, mouse TIGIT expressed on cells; assay: flow cytometry, 100 nM Ab, Jurkat-mTIGIT vs untransfected
Procedure: as §1

[6] = biological target: T1, human TIGIT expressed on cells; assay: flow cytometry, competition with CD155-His (5 ug/ml) on Jurkat-hTIGIT
[7] = biological target: T3, Human TIGIT-His; assay: MSD-SET, monovalent (Fab or mAb titrated, not said which); remark: listed apart in the source
Procedure: as §2

[8] = biological target: T1, human TIGIT expressed on cells; assay: cell-based or functional assay; remark: listed apart in the source
[9] = biological target: T1, human TIGIT expressed on cells; assay: flow cytometry on Jurkat-hTIGIT
Procedure: Antibodies were incubated with the cells for 20 min at 4° C. in FACS buffer. […] Fluorescence intensity was analysed using LSR BD Fortessa and cell binding was recorded as the median fluorescence intensity of PE in cells expressing TIGIT at their surface.
The half-maximal concentration of binding (EC50) to Jurkat-hTIGIT was calculated using a four-variable curve-fit equation in Prism.

[10] = biological target: T1, human TIGIT expressed on cells; assay: flow cytometry, competition with CD155-His (15 ug/ml) on Jurkat-hTIGIT
[11] = biological target: T1, human TIGIT expressed on cells; assay: cell-based or functional assay; remark: listed apart in the source
[12] = biological target: T1, human TIGIT expressed on cells; assay: flow cytometry, primary CD8+ T cells of healthy human PBMC, MFI
Procedure: Isolated human PBMCs from healthy volunteers were analysed for binding by antagonist anti-TIGIT antibodies. Cells were distributed at 1×10⁵ cells per well. Cells were incubated with anti-CD16 (Clone 3G8, BioLegend 302002), CD32 (Clone FLI8.26, BD Bioscience 557333) and CD64 (BD Bioscience 555525) at room temperature for 10 min, and the indicated anti-human TIGIT antibody clones were directly added at a final concentration of 8; 4; 2; 1; 0.5; 0.25; 0.125; 0.062; 0.031; 0.016; 8×10⁻³ and 4×10⁻³ nM in FACS buffer and incubated for 20 min at 4° C. […] Then, cells were washed and incubated with the following antibodies and LVD mix: anti-CD4-PercP-Cy5.5 (clone A161A1, BioLegend 357414); anti-CD8-BV510 (clone SK1, BD Bioscience 563919) and LVD efluor 660 (eBioscience 65-0864-18).
The EC50 values for binding to CD8+ human primary T cells were calculated using the MFI signal on living TIGIT+CD8+ T cells.

[13] = biological target: T5, recombinant human TIGIT protein …; assay: Biacore T200, IgG captured by anti-human Fc, antigen in solution, 1:1 kinetic model
Procedure: Biosensor analysis was conducted at 25° C. in a HBS-EP buffer system (10 mM HEPES pH 7.3, 150 mM NaCl, 3 mM EDTA, 0.05% Tween20) using Biacore T200 technology, CMS sensor chip (run at Novalix, France). The sample hotel was maintained at 8° C. Goat anti-human IgG capture antibody (Fcγ fragment specific, Jackson ImmunoResearch Laboratories) was immobilized (10000 RU) to both flow cells of the sensor chip using standard amine coupling chemistry. This surface type provided a format for reproducibly capturing fresh analysis antibody after each regeneration step. Flow cell 2 was used to analyse captured antibody while flow cell 1 was used as a reference flow cell. […] Two blank (buffer) injections also were run and used to assess and subtract system artefacts. The association (300 s) and dissociation (600 s) phases for all antigen concentrations were performed at a flow rate of 30 uL/min. The surface was regenerated with three sequential injections (15 s, 15 s and 60 s) of 10 mM glycine-HCl, pH 1.5. The obtained sensorgrams were fitted globally to a 1:1 model (assuming the same kinetic values for all applied concentrations).

[14] = biological target: T1, human TIGIT expressed on cells; assay: cell-based or functional assay; remark: listed apart in the source
[15] = biological target: T1, human TIGIT expressed on cells; assay: flow cytometry, primary CD8+ T cells of cancer patients' PBMC, MFI
Procedure: Cells were distributed at 1×10^5 cells per well. […] Then, cells were washed and incubated with the following antibodies and life viability dye (LVD) mix: anti-CD4-PercP-Cy5.5 (clone A161A1, BioLegend 357414); anti-CD8-BV510 (clone SK1, BD Bioscience 563919) and LVD efluor 520 (eBioscience 65-0867-14). Cells were washed and fixed and surface staining was quantified using BD LSR Fortessa. Flow cytometry data was analysed using FlowJo V10.1. TIGIT MFI on gated LVD-TIGIT+CD8+ cells was used to calculate EC50 values.

Row | Binder | FON (Fold Over Negative) [1] | Kd [2] | Kd [3] | Induction over Isotype control (fold change), luciferase, Jurkat-hTIGIT + CHO-TCR-CD155, 133 nM [4] | FON (Fold Over Negative) [5] | IC50 [6] | Kd [7] | increase of IFNg secretion over isotype control, human primary CD8+ T cells + CHO-TCR-CD155 [8] | other results
1 | B1 | 150 fold | 0.531 nM | 1.7 nM | 2.4 fold | 502 fold | 0.079 nM | 1.7 nM |  | 
2 | B2 | 156 fold | 0.392 nM | 0.025 nM | 3.26 fold | 406 fold | 0.094 nM | 0.025 nM | 3.2 fold | 
3 | B3 | 164 fold | 0.319 nM | 0.019 nM | 3.68 fold | 541 fold | 0.103 nM | 0.019 nM | 5.2 fold | 
4 | B4 |  |  |  |  |  |  |  |  | EC50 [9]: 0.13 nM; Fold change of EC50 over EC50 of best clone (31282_wu) [9]: 1.2 fold; Fold change of IC50 over IC50 of best clone (31282_up) [10]: 1.7 fold; IC50 [10]: 0.07 nM; EC50 (nM), luciferase, Jurkat-hTIGIT [11]: 5.3 nM; Fold change of EC50 over EC50 of best clone (31282_up) [11]: 1.6 fold; Induction over Isotype control (fold change), luciferase, Jurkat-hTIGIT + CD155 aAPC/CHO-K1 [11]: 6.7 fold; EC50 [12]: 0.39 nM; Fold change of EC50 over EC50 of best clone (31282_wu) [12]: 2 fold; Kd [13]: 0.067 nM; koff [13]: 0.000209 s⁻¹; EC50 (nM), IFNg, human primary CD8+ T cells [14]: 0.3 nM; Fold change of EC50 over EC50 of best clone (31282_wu) [14]: 2.3 fold; Induction over isotype control (fold change), IFNg, human primary CD8+ T cells + CD155 aAPC/CHO-K1 [14]: 1.6 fold; EC50 [15]: 0.18 nM; Fold change of EC50 over EC50 of best clone (31282) [15]: 1.5 fold
